Drawing on article PMC10804987, this text covers response for four substances.

In the assay the target is PRRSV-2 nucleocapsid (N) protein with Myc tag. Briefly: ELISA. As to conditions: mutated N-His as coating antigen; N-Myc added; parent: est. 0.97; read off a plot. In general terms: In an ELISA, binding on a coated surface is turned into a signal by an enzyme label.
“PRRSV-2 nucleocapsid (N) protein with His tag Q109A”: the response was 0.7 OD450nm.
In the case of “PRRSV-2 nucleocapsid (N) protein with His tag S105A; T108A; Q109A”, the response was 0.2 OD450nm.
The figure for “PRRSV-2 nucleocapsid (N) protein with His tag S105A” is 0.28 OD450nm.
Then “PRRSV-2 nucleocapsid (N) protein with His tag T108A”, with 1 OD450nm.
